Literature values in PMC3985698.

Biological target: Bad (Homo sapiens) (UniProt Q92934)
Conditions: cited from earlier work

Sequence of UniProt Q92934 (Q92934 whole entry): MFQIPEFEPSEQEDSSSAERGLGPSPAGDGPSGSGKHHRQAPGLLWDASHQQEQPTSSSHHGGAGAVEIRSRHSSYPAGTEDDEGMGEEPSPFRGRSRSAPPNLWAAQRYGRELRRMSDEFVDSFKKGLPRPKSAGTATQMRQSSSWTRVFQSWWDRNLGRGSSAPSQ

Bcl-xL (from UniProt Q07817)
Kd: 0.6 nM
